This assay has as its target KSR1 in KSR1+/+ mouse embryo fibroblasts (cells that overexpress KSR1) (UniProt Q61097). The assay is described as follows: proximity ligation; fixed serum-starved KSR1+/+ MEFs, anti-KSR1 with anti-pERK or anti-ERK antibodies, Duolink; vehicle or 40 μM CGS9343B for 16 h, then vehicle or 100 ng/ml EGF for 5 min; spots per cell, vehicle set to 1.

Chain of KSR1 in KSR1+/+ mouse embryo fibroblasts (cells that overexpress KSR1) (Q61097 whole entry): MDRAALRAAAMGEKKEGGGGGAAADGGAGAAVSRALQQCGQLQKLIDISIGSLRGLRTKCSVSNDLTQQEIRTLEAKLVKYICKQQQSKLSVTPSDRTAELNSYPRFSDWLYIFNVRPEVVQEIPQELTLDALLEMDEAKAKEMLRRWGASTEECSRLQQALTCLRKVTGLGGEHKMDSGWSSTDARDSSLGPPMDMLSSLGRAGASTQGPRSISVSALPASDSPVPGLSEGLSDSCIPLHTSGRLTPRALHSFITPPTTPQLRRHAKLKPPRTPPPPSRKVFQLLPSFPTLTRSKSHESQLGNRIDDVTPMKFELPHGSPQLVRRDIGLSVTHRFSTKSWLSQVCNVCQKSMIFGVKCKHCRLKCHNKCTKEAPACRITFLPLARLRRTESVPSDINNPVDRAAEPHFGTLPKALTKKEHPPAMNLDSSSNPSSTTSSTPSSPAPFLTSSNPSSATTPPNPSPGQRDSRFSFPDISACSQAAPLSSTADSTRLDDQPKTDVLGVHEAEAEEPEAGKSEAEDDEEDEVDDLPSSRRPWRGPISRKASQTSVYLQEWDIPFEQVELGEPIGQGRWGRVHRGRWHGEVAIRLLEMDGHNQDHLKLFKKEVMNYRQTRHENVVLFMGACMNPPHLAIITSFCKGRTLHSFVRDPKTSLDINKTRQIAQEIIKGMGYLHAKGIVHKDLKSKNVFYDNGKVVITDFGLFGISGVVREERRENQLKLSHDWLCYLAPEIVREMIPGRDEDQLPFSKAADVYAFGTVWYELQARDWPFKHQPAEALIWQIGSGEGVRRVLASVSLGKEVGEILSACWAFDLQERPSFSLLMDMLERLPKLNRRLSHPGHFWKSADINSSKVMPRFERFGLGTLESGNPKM

Substance “ERK (extracellular signal-regulated kinase), total ERK (from UniProt P63085 1-358) (natural protein)” had a fold change of PLA spots per cell, EGF against vehicle of 4.36 fold. Then “pERK (phosphorylated ERK) (from UniProt P63085 1-358) (natural protein)”, with 6.2 fold.

The record behind these values is PMC8079274.
